This note sets out measurements from patent publication US20200081011.

The target in data set [1] is T1, PWTW|YGVK (Table 1 substrate sequence).
T1 chain: PWTWYGVK

Data set [2] concerns the target T2, VGKW|SYRM (Table 1 substrate sequence).
T2 chain: VGKWSYRM

Data set [3] addresses T3, gastricsin selective internally quenched fluorescent substrate DEGW^ALQH.
T3 chain: DEGWALQH

The target of data set [4] is T4, NMKW|TRVL (Table 1 substrate sequence).
T4 chain: NMKWTRVL

Data set [5] concerns the target T5, DEGW|ALQH (Table 1 substrate sequence).
T5 chain: DEGWALQH

Data set [6] concerns the target T6, GLY|FRYE (Table 1 substrate sequence).
T6 chain: GLYFRYE

Data set [7] addresses T7, cathepsin E selective internally quenched fluorescent substrate AGFSL|PA.
T7 chain: AGFSLPA

In data set [8] the target is T8, FGIF|YLNG (Table 1 substrate sequence).
T8 chain: FGIFYLNG

For data set [9], the target named is T9, IKIL|MFYW (Table 1 substrate sequence).
T9 chain: IKILMFYW

Data set [10] concerns the target T10, HMIA|LYWG (Table 1 substrate sequence).
T10 chain: HMIALYWG

B1: recombinant gastricsin (R&D Systems, 6186-AS) (protein)
chain: SVTYEPMAYMDAAYFGEISIGTPPQNFLVLFDTGSSNLWVPSVYCQSQACTSHSRFNPSESSTYSTNGQTFSLQYGSGSLTGFFGYDTLTVQSIQVPNQEFGLSENEPGTNFVYAQFDGIMGLAYPALSVDEATTAMQGMVQEGALTSPVFSVYLSNQQGSSGGAVVFGGVDSSLYTGQIYWAPVTQELYWQIGIEEFLIGGQASGWCSEGCQAIVDTGTSLLTVPQQYMSALLQATGAQEDEYGQFLVNCNSIQNLPSLTFIINGVEFPLPPSSYILSNNGYCTVGVEPTYLSSQNGQPLWILGDVFLRSYYSVYDLGNNRVGFATAA
As for B1, in data set [1], the Relative Cleavage is 1 and the Total Cleavage turned out to be 64. In addition, in [2], the Relative Cleavage turned out to be 0.34 and the Total Cleavage is 22. For the same protein, in data set [3], the kcat/Km (M-1/s-1) was 480000 M-1/s-1; the “selectivity of fluorescent substrate cleavage (initial velocity) for gastricsin over cathepsin D” value is “greater than 120-fold selective for gastricsin over both cathepsins D and E”; the “selectivity of fluorescent substrate cleavage (initial velocity) for gastricsin over cathepsin E” value is “greater than 120-fold selective for gastricsin over both cathepsins D and E”. In data set [4], this protein gave a Relative Cleavage of 0.33 and a Total Cleavage of 21. Besides, in data set [5], the Relative Cleavage came out at 0.47 and the Total Cleavage worked out at 30.

B2: recombinant cathepsin E (R&D Systems, 1294-AS) (protein)
chain: IQFTESCSMDQSAKEPLINYLDMEYFGTISIGSPPQNFTVIFDTGSSNLWVPSVYCTSPACKTHSRFQPSQSSTYSQPGQSFSIQYGTGSLSGIIGADQVSVEGLTVVGQQFGESVTEPGQTFVDAEFDGILGLGYPSLAVGGVTPVFDNMMAQNLVDLPMFSVYMSSNPEGGAGSELIFGGYDHSHFSGSLNWVPVTKQAYWQIALDNIQVGGTVMFCSEGCQAIVDTGTSLITGPSDKIKQLQNAIGAAPVDGEYAVECANLNVMPDVTFTINGVPYTLSPTAYTLLDFVDGMQFCSSGFQGLDIHPPAGPLWILGDVFIRQFYSVFDRGNNRVGLAPAVP
In the case of B2, the Relative Cleavage in data set [6] was found to be 1; in data set [8], 0.88; in [9], 0.68; in [10], 0.4. Moreover, the Total Cleavage amounted to 25 in [6], 22 in [8], 17 in data set [9] and 10 in data set [10]. Further, in [7], the “selectivity of fluorescent substrate cleavage (initial velocity) for cathepsin E over cathepsin D” value was “more than 100-fold selective for cathepsin E over both cathepsin D and gastricsin”. Moreover, in [7], the “selectivity of fluorescent substrate cleavage (initial velocity) for cathepsin E over gastricsin” value is “more than 100-fold selective for cathepsin E over both cathepsin D and gastricsin”.
